From article PMC9482650, “Quantitative fragmentomics allow affinity mapping of interactomes” (Nature Communications, 2022)

Experiments:
Assay in all cases: holdup assay
Design in all cases: key: below the threshold = too weak to quantify, mostly under pKd 3.1 to 4
Details in all cases: plain residues with an end cap or a label only (N-terminal biotin on a linker: ado-ado)
[1] = molecular target: T1, GRIP1_5, Q9Y3R0
T1 sequence (Q9Y3R0 568-668, limits assumed, looked up): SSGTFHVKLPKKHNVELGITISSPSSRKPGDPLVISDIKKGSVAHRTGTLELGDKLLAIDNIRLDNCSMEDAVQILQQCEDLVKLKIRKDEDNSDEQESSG

[2] = molecular target: T2, PARD3B_1, Q8TEW8
T2 sequence (Q8TEW8 196-299, limits assumed, looked up): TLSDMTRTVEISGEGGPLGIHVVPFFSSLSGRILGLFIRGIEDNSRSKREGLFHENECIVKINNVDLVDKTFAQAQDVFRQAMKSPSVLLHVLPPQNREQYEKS

[3] = molecular target: DLG4_1, P78352
DLG4_1, P78352, sequence (P78352 62-152): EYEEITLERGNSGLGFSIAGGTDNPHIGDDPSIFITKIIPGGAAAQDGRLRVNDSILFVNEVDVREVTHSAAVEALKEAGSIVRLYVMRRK

[4] = molecular target: TJP2_1, Q9UDY2
TJP2_1, Q9UDY2, sequence (Q9UDY2 24-128): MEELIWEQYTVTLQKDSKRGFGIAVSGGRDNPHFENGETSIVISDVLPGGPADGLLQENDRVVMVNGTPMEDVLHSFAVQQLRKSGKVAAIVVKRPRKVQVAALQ

[5] = molecular target: T3, TX1BP3, O14907
T3 sequence (O14907 10-122, limits assumed, looked up): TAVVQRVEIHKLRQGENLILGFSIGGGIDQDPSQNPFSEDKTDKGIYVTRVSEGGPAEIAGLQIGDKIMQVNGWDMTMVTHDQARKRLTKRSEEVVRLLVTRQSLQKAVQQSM

[6] = molecular target: GOPC, Q9HD26
[7] = molecular target: GORASP2, Q9H8Y8
[8] = molecular target: HTRA2, O43464
HTRA2, O43464, sequence (O43464 355-458): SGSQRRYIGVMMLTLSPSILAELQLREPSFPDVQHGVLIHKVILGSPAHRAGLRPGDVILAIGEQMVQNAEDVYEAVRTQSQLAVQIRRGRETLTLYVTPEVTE

[9] = molecular target: T4, MPDZ_12, O75970
T4 sequence (O75970 1857-1958, limits assumed, looked up): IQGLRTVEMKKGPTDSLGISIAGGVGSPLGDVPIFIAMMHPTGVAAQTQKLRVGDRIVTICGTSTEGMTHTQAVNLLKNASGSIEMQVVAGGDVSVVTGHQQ

[10] = molecular target: T5, RAPGEF6, Q8TEU7
T5 sequence (Q8TEU7 525-625, limits assumed, looked up): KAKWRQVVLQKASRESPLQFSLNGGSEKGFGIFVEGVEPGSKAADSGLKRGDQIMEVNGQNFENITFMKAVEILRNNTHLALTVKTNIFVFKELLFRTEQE

[11] = molecular target: Inadl_3, Q8NI35
Inadl_3, Q8NI35, sequence (Q8NI35 359-469): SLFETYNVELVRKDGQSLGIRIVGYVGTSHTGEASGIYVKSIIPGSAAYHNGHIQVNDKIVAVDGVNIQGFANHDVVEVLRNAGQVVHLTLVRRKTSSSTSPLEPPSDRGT

[12] = molecular target: FRMPD2_2, Q68DX3
FRMPD2_2, Q68DX3, sequence (Q68DX3 944-1038): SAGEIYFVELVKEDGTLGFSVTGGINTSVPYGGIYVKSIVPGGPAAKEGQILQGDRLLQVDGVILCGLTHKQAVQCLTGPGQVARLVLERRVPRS

[13] = molecular target: SCRIB_3, Q14160
SCRIB_3, Q14160, sequence (Q14160 999-1103): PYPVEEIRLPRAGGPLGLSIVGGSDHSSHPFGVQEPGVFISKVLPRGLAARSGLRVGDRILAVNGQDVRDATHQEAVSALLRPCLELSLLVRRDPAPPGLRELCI

[14] = molecular target: T6, DLG3_2, Q92796
T6 sequence (Q92796 221-321, limits assumed, looked up): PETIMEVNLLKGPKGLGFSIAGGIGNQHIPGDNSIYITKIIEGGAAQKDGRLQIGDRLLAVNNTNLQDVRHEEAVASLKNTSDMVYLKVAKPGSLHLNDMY

[15] = molecular target: FRMPD2_1, Q68DX3
FRMPD2_1, Q68DX3, sequence (Q68DX3 770-861): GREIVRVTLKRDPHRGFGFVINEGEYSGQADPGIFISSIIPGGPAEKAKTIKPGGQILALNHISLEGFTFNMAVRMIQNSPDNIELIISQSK

[16] = molecular target: MAGI2_5, Q86UL8
MAGI2_5, Q86UL8, sequence (Q86UL8 915-1017): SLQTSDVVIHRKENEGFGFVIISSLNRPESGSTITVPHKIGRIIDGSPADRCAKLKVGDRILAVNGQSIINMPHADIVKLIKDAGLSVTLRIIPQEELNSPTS

[17] = molecular target: Inadl_6, Q8NI35
Inadl_6, Q8NI35, sequence (Q8NI35 1058-1167): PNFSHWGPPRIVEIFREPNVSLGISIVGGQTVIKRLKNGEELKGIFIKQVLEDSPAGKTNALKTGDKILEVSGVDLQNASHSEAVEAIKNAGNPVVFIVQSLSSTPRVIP

[18] = molecular target: MAST2, Q6P0Q8
MAST2, Q6P0Q8, sequence (Q6P0Q8 1099-1202): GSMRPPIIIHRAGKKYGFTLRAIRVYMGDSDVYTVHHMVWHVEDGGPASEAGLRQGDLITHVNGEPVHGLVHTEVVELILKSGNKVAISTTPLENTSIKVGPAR

[19] = molecular target: MAGI2_4, Q86UL8
MAGI2_4, Q86UL8, sequence (Q86UL8 772-865): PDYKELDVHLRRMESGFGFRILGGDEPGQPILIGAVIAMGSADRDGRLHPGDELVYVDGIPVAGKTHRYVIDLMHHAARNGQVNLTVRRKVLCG

[20] = molecular target: T7, FRMPD1, Q5SYB0
T7 sequence (Q5SYB0 52-145, limits assumed, looked up): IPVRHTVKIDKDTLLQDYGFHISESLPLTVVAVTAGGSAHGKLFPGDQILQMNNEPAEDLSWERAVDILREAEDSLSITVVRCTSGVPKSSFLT

[21] = molecular target: T8, DLG3_1, Q92796
T8 sequence (Q92796 125-227, limits assumed, looked up): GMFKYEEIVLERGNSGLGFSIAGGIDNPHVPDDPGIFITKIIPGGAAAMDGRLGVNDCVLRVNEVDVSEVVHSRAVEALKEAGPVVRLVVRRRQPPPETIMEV

[22] = molecular target: PICK1, Q9NRD5
PICK1, Q9NRD5, sequence (Q9NRD5 17-115): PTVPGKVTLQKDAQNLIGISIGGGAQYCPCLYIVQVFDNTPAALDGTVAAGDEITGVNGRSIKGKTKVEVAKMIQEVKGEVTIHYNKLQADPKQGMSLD

[23] = molecular target: PTPN3, P26045
PTPN3, P26045, sequence (P26045 505-587): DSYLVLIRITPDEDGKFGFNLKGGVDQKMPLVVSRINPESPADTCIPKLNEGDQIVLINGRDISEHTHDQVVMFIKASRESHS

[24] = molecular target: T9, SNTB1, Q13884
T9 sequence (Q13884 107-205, limits assumed, looked up): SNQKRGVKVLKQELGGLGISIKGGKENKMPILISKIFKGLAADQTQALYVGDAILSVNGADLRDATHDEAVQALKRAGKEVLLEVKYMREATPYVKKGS

[25] = molecular target: T10, LNX2_2, Q8N448
T10 sequence (Q8N448 334-432, limits assumed, looked up): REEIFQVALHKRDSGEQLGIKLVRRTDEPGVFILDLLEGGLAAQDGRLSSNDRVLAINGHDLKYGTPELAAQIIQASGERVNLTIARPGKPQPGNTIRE

[26] = molecular target: MAST1, Q9Y2H9
MAST1, Q9Y2H9, sequence (Q9Y2H9 962-1065): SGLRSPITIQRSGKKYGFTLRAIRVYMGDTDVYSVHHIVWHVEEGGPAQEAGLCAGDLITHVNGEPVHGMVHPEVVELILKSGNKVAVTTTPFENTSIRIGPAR

[27] = molecular target: Inadl_8, Q8NI35
Inadl_8, Q8NI35, sequence (Q8NI35 1425-1530): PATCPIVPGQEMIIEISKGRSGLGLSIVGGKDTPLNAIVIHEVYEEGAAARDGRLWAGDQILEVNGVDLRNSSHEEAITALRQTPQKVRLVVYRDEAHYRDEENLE

B1: BCR, P11274 (peptide)
chain: RQSILFSTEV
- pKd [1]: below the threshold
- pKd [2]: below the threshold
- pKd [3]: 4.67
- pKd [4]: 3.69
- pKd [5]: 4.82
- pKd [6]: 4.5
- pKd [7]: 3.82
- pKd [8]: below the threshold
- pKd [9]: 4.41
- pKd [10]: below the threshold
- pKd [11]: 4.66
- pKd [12]: 4.12
- pKd [13]: 4.58
- pKd [14]: 4.79
- pKd [15]: below the threshold
- pKd [16]: 5.17
- pKd [17]: 3.93
- pKd [18]: 5.4
- pKd [19]: 4.88
- pKd [20]: below the threshold
- pKd [21]: 4.17
- pKd [22]: below the threshold
- pKd [23]: 4.59
- pKd [24]: 4.46
- pKd [25]: 4.71
- pKd [26]: 4.97
- pKd [27]: 4.49

B2: SLC1A4, P43007 (peptide)
chain: PELESKESVL
- pKd [1]: below the threshold
- pKd [2]: 4.21
- pKd [3]: 3.79
- pKd [4]: below the threshold
- pKd [5]: 4.1
- pKd [6]: 3.74
- pKd [7]: below the threshold
- pKd [8]: below the threshold
- pKd [9]: below the threshold
- pKd [10]: below the threshold
- pKd [11]: below the threshold
- pKd [12]: below the threshold
- pKd [13]: 4.7
- pKd [14]: 3.79
- pKd [15]: below the threshold
- pKd [16]: 4.02
- pKd [17]: 3.57
- pKd [18]: 5.21
- pKd [19]: below the threshold
- pKd [20]: below the threshold
- pKd [21]: below the threshold
- pKd [22]: below the threshold
- pKd [23]: 5.05
- pKd [24]: 4.8
- pKd [25]: below the threshold
- pKd [26]: 4.71
- pKd [27]: below the threshold

B3: FAT1, Q14517 (peptide)
chain: PLDSQQHTEV
- pKd [1]: below the threshold
- pKd [2]: below the threshold
- pKd [3]: 4.41
- pKd [4]: below the threshold
- pKd [5]: 3.85
- pKd [6]: 3.81
- pKd [7]: below the threshold
- pKd [8]: below the threshold
- pKd [9]: below the threshold
- pKd [10]: below the threshold
- pKd [11]: below the threshold
- pKd [12]: 3.73
- pKd [13]: 4.2
- pKd [14]: 4.77
- pKd [15]: below the threshold
- pKd [16]: 4.54
- pKd [17]: below the threshold
- pKd [18]: 5.21
- pKd [19]: below the threshold
- pKd [20]: below the threshold
- pKd [21]: 3.8
- pKd [22]: below the threshold
- pKd [23]: 4.5
- pKd [24]: 4.32
- pKd [25]: 4.35
- pKd [26]: 4.43
- pKd [27]: below the threshold
